Data: US20250170067A1 (published 2025)
Blank lines part the entries; values can stand above or below the molecule they belong to.

Columns and labels:
VEGF = VEGF (UniProt P15692); experiment: co-incubation of VEGF with particles, particulate removed, free VEGF in supernatant measured by ELISA
[1] = biological target: AB160 (nanoparticle of albumin-bound paclitaxel and bevacizumab, ratio about 10:4, average size 160 nm) (UniProt P02768); experiment: flow cytometry of particles stained with goat anti-mouse IgG and PE
[2] = biological target: T1, ABRAXANE® / albumin-bound paclitaxel (UniProt P02768 25-609, paclitaxel non-covalently bound); experiment: as above
T1 construct: Nanoparticle of many albumin molecules with paclitaxel, not a single polypeptide; also called ABX; Paclitaxel Albumin-stabilized Nanoparticle Formulation

[3] = biological target: T1, ABRAXANE® / albumin-bound paclitaxel; experiment: co-incubation of VEGF with particles, particulate removed, free VEGF in supernatant measured by ELISA
Procedure: AB160 was prepared as described and 2000 μg/ml VEGF was added to the AB160 complex or ABX alone. The VEGF was incubated with the nanoparticles for 2 hours at room temperature. The suspension was spun at 6000 rpm for 15 minutes, supernatants were collected and free VEGF was measured by ELISA. Briefly, ELISA plates were coated with capture antibody overnight at 4° C. Plates were washed, blocked and standards and samples were added. After washing, detection antibody was added and plates were developed with substrate (R and D Systems, Minneapolis, MN). Absorbance was measured at 450 nm using a Versamax ELISA plate reader (Molecular Devices, Sunnyvale, CA). The concentration of unbound VEGF was determined with a standard curve from 0 to 2000 μg/ml.

% VEGF unbound (VEGF): < 10%
Molecule: AB160 (nanoparticle of albumin-bound paclitaxel and bevacizumab, ratio about 10:4, average size 160 nm) (from UniProt P02768 25-609)

% positive [1]: 41.2%
% positive [2]: 6.7%
Molecule: goat anti-mouse IgG (antibody)

binding result [3]: no binding (tested: 2000 µg/ml VEGF)
B1: VEGF (ligand, UniProt P15692-4 27-191, looked up)
chain: APMAEGGGQNHHEVVKFMDVYQRSYCHPIETLVDIFQEYPDEIEYIFKPSCVPLMRCGGCCNDEGLECVPTEESNITMQIMRIKPHQGQHIGEMSFLQHNKCECRPKKDRARQENPCGPCSERRKHLFVQDPQTCKCSCKNTDSRCKARQLELNERTCRCDKPRR
